Measurements published in PMC7203678.

Molecular target: T1, C-reactive protein human, recombinant (human), P02741
T1 chain: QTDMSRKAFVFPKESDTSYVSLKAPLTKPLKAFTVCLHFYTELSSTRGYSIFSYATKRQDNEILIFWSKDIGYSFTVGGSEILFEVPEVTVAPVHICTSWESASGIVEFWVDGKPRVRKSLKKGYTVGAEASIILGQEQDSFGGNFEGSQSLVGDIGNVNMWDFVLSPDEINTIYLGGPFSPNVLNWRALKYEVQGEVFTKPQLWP
Test: native MS
Settings: remark: other sources report otherwise

stoichiometry N: 5
B1: C-reactive protein human, recombinant, P02741 19-224 (natural protein)
chain: T1 chain
